Residue numbers refer to the chain shown, from its start. In names and notes the source's numbering stands.
B1: Csk-Chk chimera (enzyme)
chain: MSAIQAAWPSGTECIAKYNFHGTAEQDLPFCKGDVLTIVAVTKDPNWYKAKNKVGREGIIPANYVQKREGVKAGTKLSLMPWFHGKITREQAERLLYPPETGLFLVRESTNYPGDYTLCVSCDGKVEHYRIMYHASKLSIDEEVYFENLMQLVEHYTSDADGLCTRLIKPKVMEGTVAAQDLTLGAQIGEGEFGAVLQGEYLGQKVAVKNIKCDVTAQAFLDETAVMTKMQHENLVRLLGVILHQGLYIVMEHVSKGNLVNFLRTRGRALVNTAQLLQFSLHVAEGMEYLESKKLVHRDLAARNILVSEDLVAKVSDFGLAKAERKGLDSSRLPVKWTAPEALKHGKFTSKSDVWSFGVLLWEVFSYGRAPYPKMSLKEVSEAVEKGYRMEPPEGCPGPVHVLMSSCWEAEPARRPPFRKLAEKLAREL
B2: Chk (R278A) (enzyme)
chain: MPTRRWAPGTQCITKCEHTRPKPGELAFRKGDVVTILEACENKSWYRVKHHTSGQEGLLAAGALREREALSADPKLSLMPWFHGKISGQEAVQQLQPPEDGLFLVRESARHPGDYVLCVSFGRDVIHYRVLHRDGHLTIDEAVFFCNLMDMVEHYSKDKGAICTKLVRPKRKHGTKSAEEELARAGWLLNLQHLTLGAQIGEGEFGAVLQGEYLGQKVAVKNIKCDVTAQAFLDETAVMTKMQHENLVRLLGVILHQGLYIVMEHVSKGNLVNFLRTAGRALVNTAQLLQFSLHVAEGMEYLESKKLVHRDLAARNILVSEDLVAKVSDFGLAKAERKGLDSSRLPVKWTAPEALKHGKFTSKSDVWSFGVLLWEVFSYGRAPYPKMSLKEVSEAVEKGYRMEPPEGCPGPVHVLMSSCWEAEPARRPPFRKLAEKLARELRSAGAPASVSGQDADGSTSPRSQEP
B3: Chk (K387A) (enzyme)
chain: MPTQRWAPGTQCMTKCENSRPKPGELAFRKGDMVTILEACEDKSWYRAKHHSSGQEGLLAAAALRQREALSTDPKLSLMPWFHGKISGQEAIQQLQPPEDGLFLVRESARHPGDYVLCVSFGRDVIHYRVLHRDGHLTIDEAVCFCNLMDMVEHYTRDKGAICTKLVKPKRKQGAKSAEEELAKAGWLLDLQHLTLGAQIGEGEFGAVLQGEYLGQKVAVKNIKCDVTAQAFLDETAVMTKLQHRNLVRLLGVILHHGLYIVMEHVSKGNLVNFLRTRGRALVSTSQLLQFALHVAEGMEYLESKKLVHRDLAARNILVSEDLVAKVSDFGLAKAELRKGLDSSRLPVKWTAPEALKNGRFSSKSDVWSFGVLLWEVFSYGRAPYPAMSLKEVSEAVEKGYRMEPPDSCPGPVHTLMGSCWEAEPSRRPPFRKIVEKLGRELRSVGVAAPAGGQEAEGSAPTRSQDPGSGSHHHHHH
B4: Chk (R276A) (enzyme)
chain: B2 chain with R276A, A278R
B5: Chk (R382A) (enzyme)
chain: B3 chain with R382A, A387K
B6: Chk (R280A) (enzyme)
chain: B3 chain with R280A, A387K

What follows are binders tested against T1, Hck (2PA-YEEI) (UniProt P08631 1-526, C-terminal tail tyrosine of the YEEI motif constitutively phosphorylated; autophosphorylated at the activation loop tyrosine (Tyr-411 of Hck)) (assay: SPR).
T1 sequence (P08631 other isoform, or with tags, fused parts or gaps): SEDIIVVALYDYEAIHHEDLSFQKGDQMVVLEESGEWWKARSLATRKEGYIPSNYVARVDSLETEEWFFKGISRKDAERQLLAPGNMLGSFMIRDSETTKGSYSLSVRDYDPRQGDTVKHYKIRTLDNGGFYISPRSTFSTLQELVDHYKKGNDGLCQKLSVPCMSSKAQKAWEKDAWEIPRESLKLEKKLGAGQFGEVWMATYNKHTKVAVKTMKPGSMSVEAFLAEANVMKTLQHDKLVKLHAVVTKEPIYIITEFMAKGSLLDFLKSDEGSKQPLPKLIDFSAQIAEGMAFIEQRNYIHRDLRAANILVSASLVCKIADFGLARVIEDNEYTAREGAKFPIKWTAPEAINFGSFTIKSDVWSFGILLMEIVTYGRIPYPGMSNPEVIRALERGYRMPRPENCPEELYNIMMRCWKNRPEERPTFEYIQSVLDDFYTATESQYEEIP

Which Kd does the source give for B1 here?
The Kd was 1270 nM.

Molecular target: T1, Hck (2PA-YEEI)
Assay: SPR
Remark: another data set of the same source

B2 was tested. Which koff did it give?
Its koff is 0.000195 s⁻¹.

B3 was tested. Which koff did it give?
Its koff is 0.00036 s⁻¹.

With B4 as the binder, how does the koff read?
The koff was 0.000208 s⁻¹.

Which koff does the source give for B5 here?
Its koff is 0.000322 s⁻¹.

With B6 as the binder, how does the koff read?
Its koff is 0.00024 s⁻¹.

Molecular target: T1, Hck (2PA-YEEI)
Assay: SPR
Remark: another data set of the same source

Which Kd does the source give for B2 here?
Its Kd is 13 nM.

Which Kd does the source give for B4 here?
The Kd was 56 nM.

B6 was tested. Which Kd did it give?
The Kd was 35 nM.

Source: publication PMC5547543 (2017)
